Our source for the excess viscosity, T diss and K50% values is publication PMC8152229.

A short description of data set [1]: viscosity (falling ball micro viscometer); Tpm alone at 1.0 or 2.0 mg/mL; 30 mM Hepes-Na pH 7.3, 100 mM NaCl, 2 mM DTT; 20 °C; excess viscosity over buffer (1.0412 mPa∙s) as measure of head-to-tail interaction between Tpm dimers. The following applies: other: viscosity (falling ball micro viscometer).
In data set [2] the target is F-actin from rabbit skeletal muscle, stabilised by phalloidin (rabbit) (UniProt P68135). Kind of data set: temperature dependence of light scattering; 20 uM F-actin stabilized by 20 uM phalloidin and 10 uM Tpm; 30 mM Hepes-Na pH 7.3, 100 mM NaCl, 2 mM DTT; heating 1 °C/min; light scattering at 90 degrees, 350 nm; T_diss = temperature of 50% decrease.
Data set [3] has the same target. Kind of data set: co-sedimentation; 10 uM phalloidin-stabilized F-actin mixed with increasing Tpm (0 to 5.5-6 uM; up to almost 40 uM for Tpm1.12); 30 mM Hepes-Na pH 7.3, 200 mM NaCl; 40 min at 25 °C; 100,000 x g for 40 min; SDS-PAGE of pellet and supernatant; K50% = Tpm concentration at which actin is half-saturated.
A further data set has as its system P09493. Put plainly: viscosity (falling ball micro viscometer); Tpm alone at 1.0 or 2.0 mg/mL; 30 mM Hepes-Na pH 7.3, 100 mM NaCl, 2 mM DTT; 20 °C; excess viscosity over buffer (1.0412 mPa∙s) as measure of head-to-tail interaction between Tpm dimers. The following applies: other: viscosity (falling ball micro viscometer).

Sequence of Tropomyosin isoform Tpm1.12 (chain, as listed by the source): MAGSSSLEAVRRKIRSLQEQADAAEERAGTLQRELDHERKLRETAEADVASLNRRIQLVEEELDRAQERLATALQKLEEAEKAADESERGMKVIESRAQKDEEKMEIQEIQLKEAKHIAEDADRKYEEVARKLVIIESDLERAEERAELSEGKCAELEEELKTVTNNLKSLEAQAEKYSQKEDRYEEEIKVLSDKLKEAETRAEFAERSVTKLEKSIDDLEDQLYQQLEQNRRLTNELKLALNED
Sequence of Tropomyosin isoform Tpm1.7 with Ala-Ser N-terminal extension (chain, as listed by the source): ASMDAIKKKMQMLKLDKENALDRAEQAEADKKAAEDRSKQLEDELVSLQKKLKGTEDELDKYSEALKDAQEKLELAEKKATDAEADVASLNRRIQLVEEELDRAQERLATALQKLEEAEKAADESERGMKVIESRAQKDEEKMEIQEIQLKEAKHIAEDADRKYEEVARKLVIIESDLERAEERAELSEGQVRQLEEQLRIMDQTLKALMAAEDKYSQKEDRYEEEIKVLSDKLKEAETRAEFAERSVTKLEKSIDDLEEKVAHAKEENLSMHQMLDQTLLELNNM

On to “Tropomyosin isoform Tpm1.5 with Ala-Ser N-terminal extension”, for which, in data set [1], the excess viscosity at 1 mg/mL was found to be 0.179 mPa∙s and the excess viscosity at 2 mg/mL is 0.653 mPa∙s.

In data set [2], “Tropomyosin isoform Tpm1.5 with Ala-Ser N-terminal extension (natural protein)” showed a T diss of 48.9 °C. Further, the K50% in data set [3] amounted to 1.11 µM.

In data set [1], “Tropomyosin isoform Tpm1.6 with Ala-Ser N-terminal extension” gave an excess viscosity at 1 mg/mL of 0.474 mPa∙s and an excess viscosity at 2 mg/mL of 1.34 mPa∙s.

As to “Tropomyosin isoform Tpm1.6 with Ala-Ser N-terminal extension (natural protein)”, the T diss in data set [2] amounted to 41.4 °C. This substance also showed a K50% in data set [3] of 0.45 µM.

As to “Tropomyosin isoform Tpm1.7 with Ala-Ser N-terminal extension”, in the data set on P09493, the excess viscosity at 1 mg/mL is 1.03 mPa∙s and the excess viscosity at 2 mg/mL came to 3.58 mPa∙s.

In the data set on P09493, Tropomyosin isoform Tpm1.12 showed an excess viscosity at 1 mg/mL of 0.026 mPa∙s and an excess viscosity at 2 mg/mL of 0.066 mPa∙s.
